Source: patent US20180265850A1

What was measured:
[1] = biological target: human FKBP (12 kD, GenBank accession number: AAP36774.1) (human) (UniProt P62942); experiment: cell-based or functional assay
[2] = biological target: FRB (11 kD, PDB access number: 1AUE A) (UniProt P42345); experiment: cell-based or functional assay

human FKBP (12 kD, GenBank accession number: AAP36774.1) (human), sequence (P62942 whole entry): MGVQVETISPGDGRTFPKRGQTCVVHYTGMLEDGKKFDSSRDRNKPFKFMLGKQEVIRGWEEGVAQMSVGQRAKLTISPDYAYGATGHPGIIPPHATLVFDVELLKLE
human FKBP (12 kD, GenBank accession number: AAP36774.1), sequence (P62942 whole entry): as above

Question: Which results are given for “FRB (11 kD, PDB access number: 1AUE A) (from UniProt P42345 2015-2114)”?
Answer: bioluminescence intensity of probe TPv2.4 (printed 'TPv2') in COS-7 lysate, 10^-6 M rapamycin vs vehicle [1]: 6.7 fold; bioluminescence of living COS-7 cells expressing TPv2.4 on a microslide, 10^-6 M rapamycin vs control [1]: 6 fold; bioluminescence of probe TPv2.7 (FRB-ALuc30(1-212)-FKBP), 10^-6 M rapamycin vs vehicle [1]: 2 fold; bioluminescence of probe TPv2.8 (FRB-ALuc30(19-212)-FKBP), 10^-6 M rapamycin vs vehicle [1]: 2 fold; luminescence intensity of cells expressing TPv2.4, 10^-6 M rapamycin [1]: 5.4 fold

Question: Which results are given for “human FKBP (12 kD, GenBank accession number: AAP36774.1) (from UniProt P62942 1-108)”?
Answer: optical intensity of probe TPv1.3 (printed 'TPv11.3'; FKBP-ALuc23(1-212)-FRB) with 10^-6 M rapamycin (fraction of intensity without rapamycin) [2]: 0.33; optical intensity of probe TPv1.7 (FKBP-ALuc30(1-212)-FRB) with 10^-6 M rapamycin (fraction of intensity without rapamycin) [2]: 0.33
